Experimental data as given in US20230024933.

T1: phosphotyrosine substrate peptide ENDpYINASL
T1 chain: ENDYINASL

T2: phosphoserine substrate peptide RRApSVA
T2 chain: RRASVA


Tests used:
[1] = biological target: histone γH2A.X^pY142, endogenous in primary murine fibroblast cultures, P27661
[2] = biological target: T1, phosphotyrosine substrate peptide …
[3] = biological target: T2, phosphoserine substrate peptide RRApSVA

Row | Protein | γH2A.X^pY142 foci per nucleus after NCS exposure [1] | tyrosine phosphatase activity (dephosphorylation assay with phosphorylated peptide) [2] | serine phosphatase activity (dephosphorylation assay) [3]
1 | EYA1 isoform A (human splice variant EYA1A, exon 10 included) (protein) MLLFPQVAVKTEPMSSSETASTTADGSLNNFSGSAIGSSSFSPRPTHQFSPPQIYPSNRPYPHILPTPSSQTMAAYGQTQFTTGMQQATAYATYPQPGQPYGISSYGALWAGIKTEGGLSQSQSPGQTGFLSYGTSFSTPQPGQAPYSYQMQGSSFTTSSGIYTGNNSLTNSSGFNSSQQDYPSYPSFGQGQYAQYYNSSPYPAHYMTSSNTSPTTPSTNATYQLQEPPSGITSQAVTDPTAEYSTIHSPSTPIKDSDSDRLRRGSDGKSRGRGRRNNNPSPPPDSDLERVFIWDLDETIIVFHSLLTGSYANRYGRDPPTSVSLGLRMEEMIFNLADTHLFFNDLEECDQVHIDDVSSDDNGQDLSTYNFGTDGFPAAATSANLCLATGVRGGVDWMRKLAFRYRRVKEIYNTYKNNVGGLLGPAKREAWLQLRAEIEALTDSWLTLALKALSLIHSRTNCVNILVTTTQLIPALAKVLLYGLGIVFPIENIYSATKIGKESCFERIIQRFGRKVVYVVIGDGVEEEQGAKKHAMPFWRISSHSDLMALHHALELEYL | EYA1A overexpression induced premature γH2A.X^pY142 dephosphorylation and clearance of DSBs | confirmed increased tyrosine phosphatase activity of EYA1A | –
2 | mutant EYA1A in which exon 10 had been removed (EYA1AΔe10) (protein) MLLFPQVAVKTEPMSSSETASTTADGSLNNFSGSAIGSSSFSPRPTHQFSPPQIYPSNRPYPHILPTPSSQTMAAYGQTQFTTGMQQATAYATYPQPGQPYGISSYGALWAGIKTEGGLSQSQSPGQTGFLSYGTSFSTPQPGQAPYSYQMQGSSFTTSSGIYTGNNSLTNSSGFNSSQQDYPSYPSFGQGQYAQYYNSSPYPAHYMTSSNTSPTTPSTNATYQLQEPPSGITSQAVTDPTAEYSTIHSPSTPIKDSDSDRLRRGSDGKSRGRGRRNNNPSPPPDSDLERVFIWDLDETIIVFHSLLTGSYANRYGRECDQVHIDDVSSDDNGQDLSTYNFGTDGFPAAATSANLCLATGVRGGVDWMRKLAFRYRRVKEIYNTYKNNVGGLLGPAKREAWLQLRAEIEALTDSWLTLALKALSLIHSRTNCVNILVTTTQLIPALAKVLLYGLGIVFPIENIYSATKIGKESCFERIIQRFGRKVVYVVIGDGVEEEQGAKKHAMPFWRISSHSDLMALHHALELEYL | deletion of EYA1A critical exon 10 (EYA146e10) normalized premature γH2A.X^pY142 dephosphorylation and γH2A.X clearance | – | dephosphorylation assays using the synthetic serine phosphatase substrate RRApSVA demonstrated superior serine phosphatase activity
